The text below walks through data of patent US20130171217A1, “ENZYMATIC PERACID GENERATION FOR USE IN SKIN CARE PRODUCTS” (E I DU PONT DE NEMOURS AND COMPANY, priority 2010, published 2013).

A short description of assay [1]: Two-step treatment of hair tresses, tress tensile strength. The procedure: Medium brown hair was used in these examples. Stock hair swatches were custom made by International Hair Importers (Glendale, N.Y.). Each swatch had 1500 mg of 50% reversed hair, soft glued in the middle with glue thickness of 1 mm and width of 2 cm.
Test-hair-sample consisted of a hair bundle of approximately 50 mg hair of 4 cm length, held together by a 1 mm thick, 2 mm wide and 5 mm long glue strip. A sheet of BYTAC® (TYPE VF-81, Saint-Gobain Performance Plastics, Wayne, N.J.) was attached to a polystyrene cover-plate, providing a TEFLON®-coated test-surface for mounting and treatment of hair. A strip of double-sided scotch tape was applied on the BYTAC® surface, closer to the top edge of the test plate. The glued side of the test-hair-sample was pressed down on the exposed side of the tape, making sure that the unglued hair strands are completely clear of the tape. The glued parts of the tress and exposed double-sided tape surface were covered with a strip of clear single-sided tape. Although the method is described for a single test-hair-tress, 4 tresses were used for each test condition and were placed side-by-side during the entire treatment.
The test tress was wetted by tap water and the excess water was absorbed with a paper towel. The calculated volume of the enzyme formulation was applied and was worked in gently and evenly into hair strands with gloved fingers for ˜30 seconds and let the formulation soak in for the specified deposition time. The tress was then rinsed with tap water agitated through a peristaltic pump for 20 seconds, to completely remove the surfactant.
Excess water was removed from the wetted tress from the previous step by absorption on a paper towel. The requisite volumes of the substrates (H2O2 and triacetin (TA)) were applied onto the test-tress. The mixture was rubbed into the hair strand firmly and evenly, with gloved finger for ˜1 min. The tress was left semi-covered for the specified treatment time.
Test-hair was washed with a diluted surfactant solution by rubbing the surfactant into hair with enough vigor to foam, for one minute to remove all traced of oils and residues arising during tress preparation or from previous cycles. Hair was rinsed thoroughly with tap water, agitated through a peristaltic pump for 35 seconds, while gently opening tresses with gloved fingers to ascertain that all adherents (surfactant or moisturizer) are dislodged. Excess moisture was absorbed by pressing down the paper towel over the tress. This would mark the end of one cycle. Treatment cycles were repeated starting from the enzyme-deposition step until the desired number of cycles was reached.
Two samples from each experiment were subjected to Tensile assay as described in Example 23, to determine the extent of hair-weakening.
The following experiments followed the general method of treatment disclosed in Example 25. Solutions were made in 5% TWEEN®-20 surfactant in 50 mM citrate buffer at pH 6. […] H2O2 and triacetin, formulations were made according to Example 24, in 20% LUBRIDERM® lotion in 50 mM citrate buffer at pH 6. After application of the reagents, the treatment was allowed to continue for 24 hr, as in daily application. TWEEN®-20 (5% in 50 mM citrate buffer at pH 6) was used for the final surfactant wash. The treatment was repeated for 15 additional cycles, 16 days in all.
The following experiments followed the general method of treatment disclosed in Example 26, except that after application of the reagents, the treatment was allowed to continue for shorter times per cycle rather than 24 hours per cycle.
Enzyme solutions were made in 0.5% or 5% TWEEN®-20 surfactant in 50 mM citrate buffer at pH 6. […] H2O2 and triacetin, formulations were made according to Example 24, in 20% LUBRIDERM® lotion (Johnson & Johnson, New Brunswick, N.J.) in 50 mM citrate buffer at pH 6. After application of 400 μL each of the reagents, the treatment was allowed to continue for 20-40 min. […]

Assay [2] in a line: Single fiber tensile strength and bleaching start after two-step enzymatic application. The procedure: Hair samples were cut into pieces 4-inches in length. The denier number (liner mass density) of each hair fiber was measured by Textechno Vibromat Instrument (Textechno Herbert Stein GmbH & Co. KG; Germany). The hair fibers were tested according to ASTM D 3822-01 (“Tensile Properties of Single Textile Fibers”; ASTM International, West Conshohocken, Pa., 2001), on an Instron testing system (Instron Model 1122 Tester; Instron, Mass.) at about 70° F. (approximately 21° C.) and 65% relative humidity. The treated area of the hair sample was placed in the middle of the gauge and both ends were gripped on the test heads. Both fiber ends were attached on a piece of tape, respectively, for easy handling and gripping on the test heads. The test used 2-inch (5.1 cm) gauge length, […], and 1.2 inch/min (3 cm/min) pulling rate. The force-strain curve of the fiber was recorded during the test. The tenacity at maximum (gf/den) was calculated by dividing maximum force (gf) by denier number (den). Note that (gf/den)/11.33=Newtons/tex (N/tex).
In a two-step application, the hair strands are first treated with perhydrolase solutions to allow the enzyme to bind hair. The hair strands are then dried or rinsed with buffer and dried. The rinse step is intended to remove excess unbound enzyme from the hair. The hair strands are soaked in triacetin and H2O2 solutions. The application is repeated for multiple times.
One experiment was carried out with C277S-HC263 and untargeted T. maritima variant C277S using the following protocol: • 1. Enzyme solutions comprising 0.5 mg/mL enzyme in 50 mM phosphate buffer (pH 8) were made with or without 10 wt % urea. • 2. Seven (7) hair strands were soaked in 0.2 mL of an enzyme solution for 10 min and then dried under N2 without prior rinsing. • 3. The hair strands were then soaked in 0.2 mL of a pH 8 solution containing 100-mM triacetin and 250-mM H2O2 for 15 min, dried, then rinsed with DI water and then dried again. • 4. Steps 2-3 were repeated up to 15 times.
Another experiment was carried out with C277S-HC263 (SEQ ID NO: 288), CPAH-HC263 (SEQ ID NO: 294), CPAH-HC1010 (SEQ ID NO: 295) and untargeted C277S using the following protocol: • 1. Enzyme solutions comprising 1.0 mg/mL enzyme in 50 mM phosphate buffer (pH 6) were prepared. For solutions containing two enzymes, the concentration of each enzyme was approximately 0.5 mg/mL. • 2. Seven (7) hair strands were soaked in 0.2 mL of an enzyme solution for 10 min, rinsed with 50 mM phosphate buffer (pH 6), and then dried under N2. • 3. The dried hair strands were then soaked into 0.2 mL of 50 mM phosphate buffer solution (pH 8) comprising 100 mM triacetin and 250 mM H2O2 for 15 min, dried, then rinsed with DI water and then dried again. • 4.

The mark [3] stands for this setting: 1500 μg/mL (E/H 6), deposition 5 min, 0.5 M H2O2, 1 M TA, 2 hr/cycle.
Setting [4] is: two-step with buffer rinse, 1.0 mg/mL enzyme pH 6, 100 mM triacetin, 250 mM H2O2, up to 13 repeats.
Where [5] appears, read: two-step without rinse, 0.5 mg/mL enzyme pH 8, urea 0 wt %.
Where [6] appears, read: two-step without rinse, 0.5 mg/mL enzyme pH 8, urea 0 wt %, 100 mM triacetin, 250 mM H2O2.
Where [7] appears, read: two-step without rinse, 0.5 mg/mL enzyme pH 8, urea 10 wt %, 100 mM triacetin, 250 mM H2O2.

B1: C277S-HC263: C277S variant of Thermotoga maritima perhydrolase fused via a flexible linker to hair-binding domain HC263 (protein)
chain: MAFFDLPLEELKKYRPERYEEKDFDEFWEETLAESEKFPLDPVFERMESHLKTVEAYDVTFSGYRGQRIKGWLLVPKLEEEKLPCVVQYIGYNGGRGFPHDWLFWPSMGYICFVMDTRGQGSGWLKGDTPDYPEGPVDPQYPGFMTRGILDPRTYYYRRVFTDAVRAVEAAASFPQVDQERIVIAGGSQGGGIALAVSALSKKAKALLCDVPFLCHFRRAVQLVDTHPYAEITNFLKTHRDKEEIVFRTLSYFDGVNFAARAKIPALFSVGLMDNISPPSTVFAAYNYYAGPKEIRIYPYNNHEGGGSFQAVEQVKFLKKLFEKGGPGSGGAGSPGSAGGPGSPSAQSQLPDKHSGLHERAPQRYGPEPEPEPEPIPEPPKEAPVVIEKPKPKPKPKPKPPAHDHKNQKETHQRHAAGSGGGGSPHHHHHH
Take B1: the TS in assay [1] (750 μg/mL (E/H 3), 0.25 M H2O2, 0.25 M TA, 20 min/cycle, 16 cycles) worked out at 2.64 N/mgH; in assay [1] (750 μg/mL (E/H 3), 0.25 M H2O2, 0.25 M TA, 24 hr/cycle, 16 cycles) it was 1.51 N/mgH; in assay [1] (750 μg/mL (E/H 3), 0.5 M H2O2, 0.5 M TA, 20 min/cycle, 16 cycles), 2.09 N/mgH; in assay [1] (750 μg/mL (E/H 3), 0.5 M H2O2, 0.5 M TA, 24 hr/cycle, 16 cycles) it was 0.25 N/mgH; in assay [1] (750 μg/mL (E/H 3), 0.75 M H2O2, 1 M TA, 40 min/cycle), 2.49 N/mgH; in assay [1] (1500 μg/mL (E/H 5), 0.75 M H2O2, 1 M TA, 20 min/cycle), 2.47 N/mgH. The TS is reported as 1.62 N/mgH in assay [1] (setting [3]); 2.33 N/mgH in assay [1] (1750 μg/mL (E/H 7), 0.25 M H2O2, 0.25 M TA, 20 min/cycle, 16 cycles); 0.77 N/mgH in assay [1] (1750 μg/mL (E/H 7), 0.25 M H2O2, 0.25 M TA, 24 hr/cycle, 16 cycles); 1.90 N/mgH in assay [1] (1750 μg/mL (E/H 7), 0.5 M H2O2, 0.5 M TA, 20 min/cycle, 16 cycles); 0.14 N/mgH in assay [1] (1750 μg/mL (E/H 7), 0.5 M H2O2, 0.5 M TA, 24 hr/cycle, 16 cycles); 1.65 N/mgH in assay [1] (1750 μg/mL (E/H 7), 0.75 M H2O2, 1 M TA, 40 min/cycle). The TS in assay [1] (2500 μg/mL (E/H 10), 0.75 M H2O2, 1 M TA, 20 min/cycle) turned out to be 1.73 N/mgH; in assay [1] (2500 μg/mL (E/H 10), 0.75 M H2O2, 1 M TA, 40 min/cycle), 1.67 N/mgH; in assay [1] (2500 μg/mL (E/H 10), 20 min/cycle, 1 cycle), 3.44 N/mgH; in assay [1] (2500 μg/mL, 4 cycles), 3.13 N/mgH; in assay [1] (2500 μg/mL, 8 cycles), 2.34 N/mgH; in assay [1] (2500 μg/mL, 12 cycles), 1.66 N/mgH. For the same molecule, the TS in assay [1] (2500 μg/mL, 16 cycles) stood at 0.95 N/mgH. Moreover, the “Predicted TS for 24 h/cycle” value in assay [1] (750 μg/mL, from 40 min/cycle) was 1.00 ^ N/mgH; in assay [1] (1500 μg/mL, from 20 min/cycle), 0.97 ^ N/mgH; in assay [1] (1750 μg/mL, from 40 min/cycle, (d) predicted disintegration of hair), −0.13(d) N/mgH; in assay [1] (2500 μg/mL, from 20 min/cycle, (d) predicted disintegration of hair in 16 × 24 h/cycle), −0.02(d) N/mgH; in assay [1] (2500 μg/mL, from 40 min/cycle, (d) predicted disintegration of hair) it was −0.10(d) N/mgH. Moreover, the “Tenacity @ max” value in assay [2] (setting [4]) came to 1.7 gf/den; in assay [2] (setting [6]), 1.2 gf/den; in assay [2] (setting [7]) it was 1.7 gf/den. In addition, the “Bleaching Start” value in assay [2] (setting [5]) is on record as 15th.

B2: SEQ ID NO: 323: S54V variant of the aryl esterase from Mycobacterium smegmatis fused to hair binding domain HC263 via a flexible linker (protein)
chain: MAKRILCFGDSLTWGWVPVEDGAPTERFAPDVRWTGVLAQQLGADFEVIEEGLVARTTNIDDPTDPRLNGASYLPSCLATHLPLDLVIIMLGTNDTKAYFRRTPLDIALGMSVLVTQVLTSAGGVGTTYPAPKVLVVSPPPLAPMPHPWFQLIFEGGEQKTTELARVYSALASFMKVPFFDAGSVISTDGVDGIHFTEANNRDLGVALAEQVRSLLGPGSGGAGSPGSAGGPGSPSAQSQLPDKHSGLHERAPQRYGPEPEPEPEPIPEPPKEAPVVIEKPKPKPKPKPKPPAHDHKNQKETHQRHAAGSGGGGSPHHHHHH
As for B2, in assay [1] (setting [3]), the TS was determined as 0.28 N/mgH.

B3: C277S: non-targeted C277S variant of the Thermotoga maritima perhydrolase, un-targeted control (protein, listed as Thermotoga maritima)
chain: MAFFDLPLEELKKYRPERYEEKDFDEFWEETLAESEKFPLDPVFERMESHLKTVEAYDVTFSGYRGQRIKGWLLVPKLEEEKLPCVVQYIGYNGGRGFPHDWLFWPSMGYICFVMDTRGQGSGWLKGDTPDYPEGPVDPQYPGFMTRGILDPRTYYYRRVFTDAVRAVEAAASFPQVDQERIVIAGGSQGGGIALAVSALSKKAKALLCDVPFLCHFRRAVQLVDTHPYAEITNFLKTHRDKEEIVFRTLSYFDGVNFAARAKIPALFSVGLMDNISPPSTVFAAYNYYAGPKEIRIYPYNNHEGGGSFQAVEQVKFLKKLFEKG
B3 yielded a TS in assay [1] (setting [3]) of 2.84 N/mgH. Further, the “Tenacity @ max” value in assay [2] (setting [4]) came to 1.7 gf/den; in assay [2] (setting [6]), 0.7 gf/den; in assay [2] (setting [7]), 0.6 gf/den. The “Bleaching Start” value came to 13th in assay [2] (setting [5]) and 12th in assay [2] (two-step without rinse, 0.5 mg/mL enzyme pH 8, urea 10 wt %).
